This experiment concerns the target H-2K^b (mouse (endogenous in RMA-S)). Put plainly: flow cytometry on cells. A general note: A flow cytometer gives signals particle by particle.

Starred links: 1 amine or outer side, 2 acyl side, 3 side chain; linkers in the order of their positions; H or OH if unused. Non-standard residues stand in square brackets, D forms with d. No end group written: not given here. βAsp = O=C(O)[C@H](CC(=O)[*:2])N[*:1]

The text below walks through data of paper doi:10.1101/2025.11.06.687013.

In turn, I[βAsp]FDFPKL [ca3_(isoasp)] gave a fold decrease of H-2Kb display against ca3 of over 100 fold.
